Measurements as given in patent publication US20110171749A1.

Molecular target: streptavidin (UniProt P22629)
Assay: polyaniline polymeric wire biosensor, streptavidin on NC membrane, pulse mode voltammetry

resistance: 4.3 kΩ
Substance: biotin conjugate goat anti-mouse IgG (whole molecule), conjugated with magnetic composite Fe2O3/polyaniline particles (antibody)
